T1: PUF4 RNA-binding domain (Saccharomyces cerevisiae, UniProt P25339 537-888)
T1 sequence: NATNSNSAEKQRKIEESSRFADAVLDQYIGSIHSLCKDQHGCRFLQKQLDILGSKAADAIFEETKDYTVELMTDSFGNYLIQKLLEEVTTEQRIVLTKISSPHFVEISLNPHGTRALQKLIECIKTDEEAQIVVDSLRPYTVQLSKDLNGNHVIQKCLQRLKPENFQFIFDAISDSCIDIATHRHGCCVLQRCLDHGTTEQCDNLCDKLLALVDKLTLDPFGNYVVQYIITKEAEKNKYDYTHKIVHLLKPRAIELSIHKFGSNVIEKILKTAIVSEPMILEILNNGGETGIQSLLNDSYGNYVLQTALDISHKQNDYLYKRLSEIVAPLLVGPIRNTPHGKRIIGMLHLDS

B1: Ib_S2_P4E.1_K4.1_C4.1_H4.1_A4.1_F4.1_[T8G]_[A9G]_T4.1 (ssRNA)
RNA: UUUGAUUAAUAUGAUAUCGUUCUUUCUUGUAUAUGGUUCUUUCUCGAUAUCAUAUUAAUCUUU
B2: Ib_S2_P4E.1_K4.1_C4.1_H4.1_A4.1_F4.1_[T8A]_[A9G]_T4.1 (ssRNA)
RNA: UUUGAUUAAUAUGAUAUCGUUCUUUCUUGUAUAUAGUUCUUUCUCGAUAUCAUAUUAAUCUUU
B3: Ib_S2_P4E.1_K4.1_C4.1_H4.1_[T1C]_A4.1_F4.1_[A9C]_T4.1 (ssRNA)
RNA: UUUGAUUAAUAUGAUAUCGUUCUUUCUCGUAUAUUCUUCUUUCUCGAUAUCAUAUUAAUCUUU
B4: Ic_S2_P4E.1_K4.1_C4.1_H4.1_A4.1_F4.1_[T8G]_[A9T]_T4.1 (ssRNA)
RNA: UUUGAUUAAUAUGAUAUCGUUCUUUCUUGUAUAUGUUUCUUUCUCGAUAUCAUAUUAAUCUUU
B5: Ib_S2_P4E.1_K4.1_C4.1_H4.1_[T1A]_A4.1_F4.1_[A9T]_T4.1 (ssRNA)
RNA: UUUGAUUAAUAUGAUAUCGUUCUUUCUAGUAUAUUUUUCUUUCUCGAUAUCAUAUUAAUCUUU
B6: Ic_S2_P4E.1_K4.1_C4.1_H4.1_A4.1_F4.1_[T8C]_[A9C]_T4.1 (ssRNA)
RNA: UUUGAUUAAUAUGAUAUCGUUCUUUCUUGUAUAUCCUUCUUUCUCGAUAUCAUAUUAAUCUUU
B7: Ib_S2_P4E.1_K4.1_C4.1_H4.1_[G2C]_A4.1_F4.1_[A9T]_T4.1 (ssRNA)
RNA: UUUGAUUAAUAUGAUAUCGUUCUUUCUUCUAUAUUUUUCUUUCUCGAUAUCAUAUUAAUCUUU
B8: Ib_S2_P4E.1_K4.1_C4.1_H4.1_[A4G]_A4.1_F4.1_[T8C]_T4.1 (ssRNA)
RNA: UUUGAUUAAUAUGAUAUCGUUCUUUCUUGUGUAUCAUUCUUUCUCGAUAUCAUAUUAAUCUUU
B9: Ib_S2_P4E.1_K4.1_C4.1_H4.1_[G2A]_A4.1_F4.1_[A9G]_T4.1 (ssRNA)
RNA: UUUGAUUAAUAUGAUAUCGUUCUUUCUUAUAUAUUGUUCUUUCUCGAUAUCAUAUUAAUCUUU
B10: Ic_S2_P4E.1_K4.1_C4.1_H4.1_A4.1_F4.1_[T8G]_[A9C]_T4.1 (ssRNA)
RNA: UUUGAUUAAUAUGAUAUCGUUCUUUCUUGUAUAUGCUUCUUUCUCGAUAUCAUAUUAAUCUUU
B11: Ib_S2_P4E.1_K4.1_C4.1_H4.1_[G2A]_A4.1_F4.1_[A9C]_T4.1 (ssRNA)
RNA: UUUGAUUAAUAUGAUAUCGUUCUUUCUUAUAUAUUCUUCUUUCUCGAUAUCAUAUUAAUCUUU
B12: Ib_S2_P4E.1_K4.1_C4.1_H4.1_[A4G]_A4.1_F4.1_[T8A]_T4.1 (ssRNA)
RNA: UUUGAUUAAUAUGAUAUCGUUCUUUCUUGUGUAUAAUUCUUUCUCGAUAUCAUAUUAAUCUUU
B13: Ib_S2_P4E.1_K4.1_C4.1_H4.1_[A4T]_A4.1_F4.1_[T8C]_T4.1 (ssRNA)
RNA: UUUGAUUAAUAUGAUAUCGUUCUUUCUUGUUUAUCAUUCUUUCUCGAUAUCAUAUUAAUCUUU
B14: Ic_S2_P4E.1_K4.1_C4.1_H4.1_A4.1_F4.1_[T8C]_[A9G]_T4.1 (ssRNA)
RNA: UUUGAUUAAUAUGAUAUCGUUCUUUCUUGUAUAUCGUUCUUUCUCGAUAUCAUAUUAAUCUUU
B15: Ib_S2_P4E.1_K4.1_C4.1_H4.1_A4.1_F4.1_[T8A]_[A9C]_T4.1 (ssRNA)
RNA: UUUGAUUAAUAUGAUAUCGUUCUUUCUUGUAUAUACUUCUUUCUCGAUAUCAUAUUAAUCUUU
B16: Ib_S2_P4E.1_K4.1_C4.1_H4.1_[T1G]_A4.1_F4.1_[A9T]_T4.1 (ssRNA)
RNA: UUUGAUUAAUAUGAUAUCGUUCUUUCUGGUAUAUUUUUCUUUCUCGAUAUCAUAUUAAUCUUU
B17: Ib_S2_P4E.1_K4.1_C4.1_H4.1_[G2C]_A4.1_F4.1_[T8C]_T4.1 (ssRNA)
RNA: UUUGAUUAAUAUGAUAUCGUUCUUUCUUCUAUAUCAUUCUUUCUCGAUAUCAUAUUAAUCUUU
B18: Ib_S2_P4E.1_K4.1_C4.1_H4.1_[A4C]_A4.1_F4.1_[T8C]_T4.1 (ssRNA)
RNA: UUUGAUUAAUAUGAUAUCGUUCUUUCUUGUCUAUCAUUCUUUCUCGAUAUCAUAUUAAUCUUU
B19: Ib_S2_P4E.1_K4.1_C4.1_H4.1_[G2T]_A4.1_F4.1_[A9G]_T4.1 (ssRNA)
RNA: UUUGAUUAAUAUGAUAUCGUUCUUUCUUUUAUAUUGUUCUUUCUCGAUAUCAUAUUAAUCUUU
B20: Ia_S2_P4E.1_K4.1_C4.1_H4.1_A4.1_F4.1_[T8C]_T4.1 (ssRNA)
RNA: UUUGAUUAAUAUGAUAUCGUUCUUUCUUGUAUAUCAUUCUUUCUCGAUAUCAUAUUAAUCUUU
B21: Ib_S2_P4E.1_K4.1_C4.1_H4.1_[A4T]_A4.1_F4.1_[T8A]_T4.1 (ssRNA)
RNA: UUUGAUUAAUAUGAUAUCGUUCUUUCUUGUUUAUAAUUCUUUCUCGAUAUCAUAUUAAUCUUU
B22: Ib_S2_P4E.1_K4.1_C4.1_H4.1_[T1C]_A4.1_F4.1_[T8A]_T4.1 (ssRNA)
RNA: UUUGAUUAAUAUGAUAUCGUUCUUUCUCGUAUAUAAUUCUUUCUCGAUAUCAUAUUAAUCUUU
B23: Ie_S4_P5E.1_K5.1_C5.1_H5.1_A5.1_F5.1_[+10TT]_T5.1 (ssRNA)
RNA: UUUGACAACUGAUCGUUCUUUCUUGUAUUAUUAUUUUCUUUCUCGAUCAGUUGUCUUU
B24: Ie_S4_P5E.1_K5.1_C5.1_H5.1_A5.1_F5.1_[+9CCC]_T5.1 (ssRNA)
RNA: UUUGACAACUGAUCGUUCUUUCUUGUAUUAUUCCCAUUCUUUCUCGAUCAGUUGUCUUU
B25: Ie_S4_P5E.1_K5.1_C5.1_H5.1_A5.1_F5.1_[+9CTC]_T5.1 (ssRNA)
RNA: UUUGACAACUGAUCGUUCUUUCUUGUAUUAUUCUCAUUCUUUCUCGAUCAGUUGUCUUU
B26: Ie_S4_P5E.1_K5.1_C5.1_H5.1_A5.1_F5.1_[+9CCT]_T5.1 (ssRNA)
RNA: UUUGACAACUGAUCGUUCUUUCUUGUAUUAUUCCUAUUCUUUCUCGAUCAGUUGUCUUU
B27: Ie_S4_P5E.1_K5.1_C5.1_H5.1_A5.1_F5.1_[+10TCC]_T5.1 (ssRNA)
RNA: UUUGACAACUGAUCGUUCUUUCUUGUAUUAUUAUCCUUCUUUCUCGAUCAGUUGUCUUU
B28: Ib_S2_P3E.1_K3.1_C3.1_H3.1_[A4T]_A3.1_[A6C]_F3.1_T3.1 (ssRNA)
RNA: UUUGAUUAAUAUGAUAUCGUUCUUUCUUGUUUCUAUUCUUUCUCGAUAUCAUAUUAAUCUUU
B29: Ic_S2_P3E.1_K3.1_C3.1_H3.1_A3.1_[T5C]_[A6G]_F3.1_T3.1 (ssRNA)
RNA: UUUGAUUAAUAUGAUAUCGUUCUUUCUUGUACGUAUUCUUUCUCGAUAUCAUAUUAAUCUUU
B30: Ib_S2_P3E.1_K3.1_C3.1_H3.1_A3.1_[T5A]_[A6C]_F3.1_T3.1 (ssRNA)
RNA: UUUGAUUAAUAUGAUAUCGUUCUUUCUUGUAACUAUUCUUUCUCGAUAUCAUAUUAAUCUUU
B31: Ic_S2_P3E.1_K3.1_C3.1_H3.1_A3.1_[A6T]_F3.1_T3.1 (ssRNA)
RNA: UUUGAUUAAUAUGAUAUCGUUCUUUCUUGUAUUUAUUCUUUCUCGAUAUCAUAUUAAUCUUU
B32: Ic_S2_P3E.1_K3.1_C3.1_H3.1_A3.1_[T5C]_[A6C]_F3.1_T3.1 (ssRNA)
RNA: UUUGAUUAAUAUGAUAUCGUUCUUUCUUGUACCUAUUCUUUCUCGAUAUCAUAUUAAUCUUU
B33: Ib_S2_P3E.1_K3.1_C3.1_H3.1_A3.1_[T5C]_[A6T]_F3.1_T3.1 (ssRNA)
RNA: UUUGAUUAAUAUGAUAUCGUUCUUUCUUGUACUUAUUCUUUCUCGAUAUCAUAUUAAUCUUU
B34: Ib_S2_P3E.1_K3.1_C3.1_H3.1_[A4T]_A3.1_[A6T]_F3.1_T3.1 (ssRNA)
RNA: UUUGAUUAAUAUGAUAUCGUUCUUUCUUGUUUUUAUUCUUUCUCGAUAUCAUAUUAAUCUUU
B35: Ic_S2_P3E.1_K3.1_C3.1_H3.1_A3.1_[T5G]_[A6T]_F3.1_T3.1 (ssRNA)
RNA: UUUGAUUAAUAUGAUAUCGUUCUUUCUUGUAGUUAUUCUUUCUCGAUAUCAUAUUAAUCUUU
B36: Ic_S2_P3E.1_K3.1_C3.1_H3.1_A3.1_[A6C]_F3.1_T3.1 (ssRNA)
RNA: UUUGAUUAAUAUGAUAUCGUUCUUUCUUGUAUCUAUUCUUUCUCGAUAUCAUAUUAAUCUUU
B37: Ic_S2_P3E.1_K3.1_C3.1_H3.1_A3.1_[T5A]_[A6T]_F3.1_T3.1 (ssRNA)
RNA: UUUGAUUAAUAUGAUAUCGUUCUUUCUUGUAAUUAUUCUUUCUCGAUAUCAUAUUAAUCUUU
B38: Ie_S4_P5E.1_K5.1_C5.1_H5.1_A5.1_F5.1_[+9TCTC]_T5.1 (ssRNA)
RNA: UUUGACAACUGAUCGUUCUUUCUUGUAUUAUUUCUCAUUCUUUCUCGAUCAGUUGUCUUU
B39: Ie_S4_P5E.1_K5.1_C5.1_H5.1_A5.1_F5.1_[+8CTCTC]_T5.1 (ssRNA)
RNA: UUUGACAACUGAUCGUUCUUUCUUGUAUUAUCUCUCUAUUCUUUCUCGAUCAGUUGUCUUU
B40: Ie_S4_P5E.1_K5.1_C5.1_H5.1_A5.1_F5.1_[+10TCTCT]_T5.1 (ssRNA)
RNA: UUUGACAACUGAUCGUUCUUUCUUGUAUUAUUAUCUCUUUCUUUCUCGAUCAGUUGUCUUU
B41: Ie_S4_P5E.1_K5.1_C5.1_H5.1_A5.1_F5.1_[+9CCTCT]_T5.1 (ssRNA)
RNA: UUUGACAACUGAUCGUUCUUUCUUGUAUUAUUCCUCUAUUCUUUCUCGAUCAGUUGUCUUU
B42: Ie_S4_P5E.1_K5.1_C5.1_H5.1_A5.1_F5.1_[+9CTCTC]_T5.1 (ssRNA)
RNA: UUUGACAACUGAUCGUUCUUUCUUGUAUUAUUCUCUCAUUCUUUCUCGAUCAGUUGUCUUU

Target: T1, PUF4 RNA-binding domain
Test: Mg; RNA-MaP; 20 mM Na-HEPES pH 7.4, 30 mM KOAc, 0.75 mM MgCl2, 0.1% Tween-20, 5% glycerol, 0.1 mg/mL BSA, 2 mM DTT; 25 C; 0.0125-409.6 nM protein
Conditions: tags: N-His6-TEV cleaved; C-SNAP kept, Cy3B-labelled; label: tethered on chip by stalled RNA polymerase

| Binder | Kd [nM] |
| --- | --- |
| B1 | 58.6 |
| B2 | 9.03 |
| B3 | 607 |
| B4 | 5.99 |
| B5 | 1380 |
| B6 | 8.44 |
| B7 | 983 |
| B8 | 16.2 |
| B9 | 203 |
| B10 | 15.4 |
| B11 | 200 |
| B12 | 3.78 |
| B13 | 1250 |
| B14 | 7.89 |
| B15 | 6.86 |
| B16 | 1380 |
| B17 | 848 |
| B18 | > 2300 |
| B19 | > 2300 |
| B20 | 7.94 |
| B21 | 122 |
| B22 | 451 |

| Binder | Kd [nM] |
| --- | --- |
| B23 | 2.52 |
| B24 | 10.8 |
| B25 | 29.8 |
| B26 | 17.6 |
| B27 | 5.62 |
| B28 | 472 |
| B29 | 33.1 |
| B30 | 66 |
| B31 | 11.4 |
| B32 | 10.6 |
| B33 | 14.8 |
| B34 | 576 |
| B35 | 181 |
| B36 | 8.48 |
| B37 | 72.2 |
| UCUCUUCGUAUAUAUCUCUU (ssRNA) [Ia_S1_P3E.1_K3.1_C3.1_H3.1_[T1C]_A3.1_F3.1_T3.1] | 1180 |
| B38 | 18 |
| B39 | 27.5 |
| B40 | 3.65 |
| B41 | 17.8 |
| B42 | 25 |

Reference: publication PMC9352680, “A comprehensive thermodynamic model for RNA binding by the Saccharomyces cerevisiae Pumilio protein PUF4”
